Data set [1] relates to arginine loaded dogs. Nature of the data set: infusion into the pancreatic artery of arginine loaded dogs; plasma insulin, plasma glucagon and blood glucose measured. The data set is classed as in vivo, mongrel dogs. To be noted: 100 pmol or 400 pmol glicentin solution infused into the pancreatic artery for 10 minutes.
Description: Healthy mongrel dogs weighing 13 to 17 kg were subjected to the test after an overnight fast (A. Ohneda et al., Hotre. Metab. Res., 9, 447-452 (1977)).
The animals were anesthetized with sodium pentobarbital (Nembutal®) and their abdomens were opened. […] After the operation was completed, saline solution containing 0.5% arginine was infused into the pancreatic artery at a constant rate of 2 ml/min through the cannula using an infusion pump. […] 4 ml portions of blood samples for hormone assay were collected at various intervals into a glass tube containing 1000 KIU aprotinine and 10 mg EDTA.
The plasma insulin was measured in accordance with a known method mentioned in C.
The blood glucose was measured for blood drawn from the femoral artery by the glucose oxidase method using a test kit for the determination of blood glucose (available from Wako Pure Chemical Industries, Japan under the trade name of "Glucose B-Test Wako").
Data set [2] concerns male MALB/c mice. Description: intraperitoneal administration to mice, observation of appearance. The data set is classed as in vivo. To be noted: 10 mg/kg intraperitoneally, male MALB/c mice (6 weeks age).

B1: glicentin: peptide comprising 69 amino acid residues, major component of gut glucagon-like immunoreactants; produced by recombinant DNA in E. coli (protein)
chain: RSLQDTEEKSRSFSASQADPLSDPDQMNEDKRHSQGTFTSDYSKYLDSRRAQDFVQWLMNTKRNRNNIA
Consider B1, for which the “insulin secretion (plasma insulin, IRI)” value in data set [1] (0.5% arginine infusion, anesthetized dogs) is reported as “stimulates insulin secretion”. Also, in data set [1] (antiserum G 21 specific for C-terminal portion of glucagon), the “glucagon level (IRG(G 21))” value is reported as “not increased”. For the same molecule, the blood glucose levels entry in data set [1] (blood from femoral artery, glucose oxidase method) is “no change”. Moreover, in data set [2], the change in appearance entry was “no change in appearance”.

The values are drawn from patent publication US5616558A, “Medicaments comprising glicentin as active ingredient” (Nisshin Flour Milling Co., Ltd., priority 1992, dated 1997).
